Data from US20110033935.

Columns and labels:
GLA2 = molecular target: T1, GLA2
T1 chain: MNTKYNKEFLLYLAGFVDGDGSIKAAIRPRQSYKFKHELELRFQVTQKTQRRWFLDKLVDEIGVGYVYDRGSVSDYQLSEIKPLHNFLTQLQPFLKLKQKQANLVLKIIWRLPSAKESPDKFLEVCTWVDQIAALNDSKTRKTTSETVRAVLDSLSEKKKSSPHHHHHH

BRP2 = molecular target: T2, BRP2
T2 chain: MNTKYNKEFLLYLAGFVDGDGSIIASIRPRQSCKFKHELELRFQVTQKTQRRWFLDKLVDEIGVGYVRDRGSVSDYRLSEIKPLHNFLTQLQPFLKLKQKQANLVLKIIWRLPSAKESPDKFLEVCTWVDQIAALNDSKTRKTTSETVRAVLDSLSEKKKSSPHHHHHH

MGC2 = molecular target: T3, MGC2
T3 chain: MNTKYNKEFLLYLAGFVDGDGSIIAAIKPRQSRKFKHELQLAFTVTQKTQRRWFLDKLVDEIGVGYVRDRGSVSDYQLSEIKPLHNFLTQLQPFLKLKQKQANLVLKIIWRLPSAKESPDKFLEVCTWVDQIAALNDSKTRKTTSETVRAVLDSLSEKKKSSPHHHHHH

[1] = molecular target: T4, HGH2 (partner of CYP in the CYP/HGH2 heterodimer, the 44th table)
T4 chain: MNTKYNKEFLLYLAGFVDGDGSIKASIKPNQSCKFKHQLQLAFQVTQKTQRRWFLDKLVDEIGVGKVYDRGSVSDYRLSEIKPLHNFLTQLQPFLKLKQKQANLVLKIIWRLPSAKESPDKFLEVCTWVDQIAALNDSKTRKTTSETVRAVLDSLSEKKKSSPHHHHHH

URA2 = molecular target: T5, URA2
T5 chain: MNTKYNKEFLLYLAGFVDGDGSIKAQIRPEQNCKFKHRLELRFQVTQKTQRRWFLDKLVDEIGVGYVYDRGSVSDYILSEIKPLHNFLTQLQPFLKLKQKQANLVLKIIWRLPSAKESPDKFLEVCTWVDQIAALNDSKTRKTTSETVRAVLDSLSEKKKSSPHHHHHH

LAM2 = molecular target: T6, LAM2
T6 chain: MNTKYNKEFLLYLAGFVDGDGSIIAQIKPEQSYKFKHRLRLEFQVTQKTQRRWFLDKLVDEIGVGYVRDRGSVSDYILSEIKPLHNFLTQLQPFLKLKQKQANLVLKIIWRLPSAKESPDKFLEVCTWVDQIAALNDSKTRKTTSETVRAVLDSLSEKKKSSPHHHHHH

[2] = molecular target: T7, variant of LAM2 in which glutamic acids at positions 8 and 61 were changed to lysine
T7 chain: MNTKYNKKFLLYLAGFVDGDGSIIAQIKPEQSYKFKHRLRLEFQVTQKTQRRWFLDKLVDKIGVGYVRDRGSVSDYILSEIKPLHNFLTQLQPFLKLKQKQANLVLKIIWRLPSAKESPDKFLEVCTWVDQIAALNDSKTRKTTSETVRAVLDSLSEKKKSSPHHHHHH

ACH2 = molecular target: T8, ACH2
T8 chain: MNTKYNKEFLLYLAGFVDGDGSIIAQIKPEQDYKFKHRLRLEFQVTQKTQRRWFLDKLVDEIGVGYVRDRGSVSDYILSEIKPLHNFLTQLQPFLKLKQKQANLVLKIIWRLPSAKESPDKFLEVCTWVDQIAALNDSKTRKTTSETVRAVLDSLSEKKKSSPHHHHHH

HGH2 = molecular target: T9, HGH2
T9 chain: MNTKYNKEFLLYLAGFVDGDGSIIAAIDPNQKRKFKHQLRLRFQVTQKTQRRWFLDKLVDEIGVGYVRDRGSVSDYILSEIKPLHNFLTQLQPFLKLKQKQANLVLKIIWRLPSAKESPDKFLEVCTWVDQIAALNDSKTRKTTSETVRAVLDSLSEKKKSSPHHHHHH

CF2 = molecular target: T10, CF2
T10 chain: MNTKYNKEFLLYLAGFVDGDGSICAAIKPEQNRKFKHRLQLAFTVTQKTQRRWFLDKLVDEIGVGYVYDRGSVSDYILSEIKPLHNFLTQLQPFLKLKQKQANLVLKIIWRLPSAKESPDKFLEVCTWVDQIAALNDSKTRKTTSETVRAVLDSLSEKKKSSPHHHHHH

CCR2 = molecular target: T11, CCR2
T11 chain: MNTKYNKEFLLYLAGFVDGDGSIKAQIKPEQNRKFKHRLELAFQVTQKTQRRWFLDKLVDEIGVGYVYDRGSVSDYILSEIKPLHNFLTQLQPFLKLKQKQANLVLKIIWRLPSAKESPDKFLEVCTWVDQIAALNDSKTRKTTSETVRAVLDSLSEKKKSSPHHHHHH

MYD2 = molecular target: T12, MYD2
T12 chain: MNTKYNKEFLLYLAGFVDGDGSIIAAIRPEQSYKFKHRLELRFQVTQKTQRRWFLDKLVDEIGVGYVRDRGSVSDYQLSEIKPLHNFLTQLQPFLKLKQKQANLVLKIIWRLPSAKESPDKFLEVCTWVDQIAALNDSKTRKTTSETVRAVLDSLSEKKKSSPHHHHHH

B1: GLA1 (protein)
chain: MNTKYNKEFLLYLAGFVDGDGSIKAAIKPRQSYKFKHELSLAFQVTQKTQRRWFLDKLVDEIGVGYVYDRGSVSDYQLCEIKPLHNFLTQLQPFLKLKQKQANLVLKIIWRLPSAKESPDKFLEVCTWVDQIAALNDSKTRKTTSETVRAVLDSLSEKKKSSPHHHHHH
- cleavage of a linearized DNA substrate with the intended non-palindromic recognition sequence (SEQ ID NO: 32, Arabidopsis GL2 gene) by the 1:1 mixture (GLA2): each rationally-designed meganuclease heterodimer cleaves its intended DNA site

B2: BRP1 (protein)
chain: MNTKYNKEFLLYLAGFVDGDGSIKAQIRPRQCRKFKHELELAFQVTQKTQRRWFLDKLVDEIGVGKVYDRGSVSDYELSEIKPLHNFLTQLQPFLKLKQKQANLVLKIIWRLPSAKESPDKFLEVCTWVDQIAALNDSKTRKTTSETVRAVLDSLSEKKKSSPHHHHHH
- cleavage of a linearized DNA substrate with the intended non-palindromic recognition sequence (SEQ ID NO: 33, Arabidopsis BP1 gene) by the 1:1 mixture (BRP2): each rationally-designed meganuclease heterodimer cleaves its intended DNA site

B3: MGC1 (protein)
chain: MNTKYNKEFLLYLAGFVDGDGSIKAQIKPNQCYKFKHQLQLAFQVTQKTQRRWFLDKLVDEIGVGYVYDRGSVSDYILSEIKPLHNFLTQLQPFLKLKQKQANLVLKIIWRLPSAKESPDKFLEVCTWVDQIAALNDSKTRKTTSETVRAVLDSLSEKKKSSPHHHHHH
- cleavage of a linearized DNA substrate with the intended non-palindromic recognition sequence (SEQ ID NO: 34, Nicotiana tabacum Magnesium Chelatase gene) by the 1:1 mixture (MGC2): each rationally-designed meganuclease heterodimer cleaves its intended DNA site

B4: CYP (protein)
chain: MNTKYNKEFLLYLAGFVDGDGSIIAAIKPNQDYKFKHQLRLAFQVTQKTQRRWFLDKLVDEIGVGYVYDRGSVSDYQLSEIKPLHNFLTQLQPFLKLKQKQANLVLKIIWRLPSAKESPDKFLEVCTWVDQIAALNDSKTRKTTSETVRAVLDSLSEKKKSSPHHHHHH
- cleavage of a linearized DNA substrate with the intended non-palindromic recognition sequence (SEQ ID NO: 35, Nicotiana tabacum CYP82E4 gene) by the 1:1 mixture [1]: each rationally-designed meganuclease heterodimer cleaves its intended DNA site

B5: URA1 (protein)
chain: MNTKYNKEFLLYLAGFVDGDGSIIAQIKPNQSCKFKHQLRLAFTVTQKTQRRWFLDKLVDEIGVGYVRDRGSVSDYILSEIKPLHNFLTQLQPFLKLKQKQANLVLKIIWRLPSAKESPDKFLEVCTWVDQIAALNDSKTRKTTSETVRAVLDSLSEKKKSSPHHHHHH
- cleavage of a linearized DNA substrate with the intended non-palindromic recognition sequence (SEQ ID NO: 36, Saccharomyces cerevisiae URA3 gene) by the 1:1 mixture (URA2): each rationally-designed meganuclease heterodimer cleaves its intended DNA site

B6: LAM1 (protein)
chain: MNTKYNKEFLLYLAGFVDGDGSIIAQIDPRQCRKFKHELRLRFQVTQKTQRRWFLDKLVDEIGVGYVRDRGSVSDYILSEIKPLHNFLTQLQPFLKLKQKQANLVLKIIWRLPSAKESPDKFLEVCTWVDQIAALNDSKTRKTTSETVRAVLDSLSEKKKSSPHHHHHH
- cleavage of the non-palindromic LAM1/LAM2 hybrid DNA site (SEQ ID NO: 22) by enzymes co-expressed from an operon in E. coli (LAM2): The co-expressed enzyme mixture was found to cleave all three sites, including the LAM1/LAM2 hybrid site
- cleavage of the non-palindromic LAM1/LAM2 hybrid DNA site (SEQ ID NO: 22) by purified enzymes mixed 1:1 and incubated at 42 C for 20 minutes (LAM2): The 1:1 mixture of LAM1 and LAM2, however, cleaves all three DNA sites

B7: variant of the LAM1 enzyme in which lysines at positions 7, 57, and 96 were changed to glutamic acids (protein)
chain: MNTKYNEEFLLYLAGFVDGDGSIIAQIDPRQCRKFKHELRLRFQVTQKTQRRWFLDELVDEIGVGYVRDRGSVSDYILSEIKPLHNFLTQLQPFLELKQKQANLVLKIIWRLPSAKESPDKFLEVCTWVDQIAALNDSKTRKTTSETVRAVLDSLSEKKKSSPHHHHHH
- cleavage of the LAM1/LAM2 hybrid DNA site against the two palindromic sites by co-expressed interface variants [2]: the LAM1/LAM2 hybrid site was found to be cleaved preferentially over the two palindromic sites

B8: ACH1 (protein)
chain: MNTKYNKEFLLYLAGFVDGDGSIIAAIDPEQDCKFKHRLRLRFQVTQKTQRRWFLDKLVDEIGVGYVRDRGSVSDYQLSEIKPLHNFLTQLQPFLKLKQKQANLVLKIIWRLPSAKESPDKFLEVCTWVDQIAALNDSKTRKTTSETVRAVLDSLSEKKKSSPHHHHHH
- cleavage of a linearized DNA substrate with the intended non-palindromic recognition sequence (SEQ ID NO: 23, human FGFR3 gene) by the 1:1 mixture (ACH2): each rationally-designed meganuclease heterodimer cleaves its intended DNA site

B9: HGH1 (protein)
chain: MNTKYNKEFLLYLAGFVDGDGSIIAQIDPNQDCKFKHQLRLRFQVTQKTQRRWFLDKLVDEIGVGYVRDRGSVSDYILSEIKPLHNFLTQLQPFLKLKQKQANLVLKIIWRLPSAKESPDKFLEVCTWVDQIAALNDSKTRKTTSETVRAVLDSLSEKKKSSPHHHHHH
- cleavage of a linearized DNA substrate with the intended non-palindromic recognition sequence (SEQ ID NO: 24, Human Growth Hormone promoter) by the 1:1 mixture (HGH2): each rationally-designed meganuclease heterodimer cleaves its intended DNA site

B10: CF1 (protein)
chain: MNTKYNKEFLLYLAGFVDGDGSICAQIKPNQSYKFKHQLQLAFQVTQKTQRRWFLDKLVDEIGVGYVHDRGSVSDYILSEIKPLHNFLTQLQPFLKLKQKQANLVLKIIWRLPSAKESPDKFLEVCTWVDQIAALNDSKTRKTTSETVRAVLDSLSEKKKSSPHHHHHH
- cleavage of a linearized DNA substrate with the intended non-palindromic recognition sequence (SEQ ID NO: 25, human CFTR deltaF508 allele) by the 1:1 mixture (CF2): each rationally-designed meganuclease heterodimer cleaves its intended DNA site

B11: CCR1 (protein)
chain: MNTKYNKEFLLYLAGFVDGDGSIKAQIRPRQNYKFKHELELEFQVTQKTQRRWFLDKLVDEIGVGYVYDRGSVSDYILSEIKPLHNFLTQLQPFLKLKQKQANLVLKIIWRLPSAKESPDKFLEVCTWVDQIAALNDSKTRKTTSETVRAVLDSLSEKKKSSPHHHHHH
- cleavage of a linearized DNA substrate with the intended non-palindromic recognition sequence (SEQ ID NO: 26, human CCR5 gene) by the 1:1 mixture (CCR2): each rationally-designed meganuclease heterodimer cleaves its intended DNA site

B12: MYD1 (protein)
chain: MNTKYNKEFLLYLAGFVDGDGSIIAQIRPRQSYKFKHELELAFQVTQKTQRRWFLDKLVDEIGVGKVRDRGSVSDYELSEIKPLHNFLTQLQPFLKLKQKQANLVLKIIWRLPSAKESPDKFLEVCTWVDQIAALNDSKTRKTTSETVRAVLDSLSEKKKSSPHHHHHH
- cleavage of a linearized DNA substrate with the intended non-palindromic recognition sequence (SEQ ID NO: 27, human DM kinase gene) by the 1:1 mixture (MYD2): each rationally-designed meganuclease heterodimer cleaves its intended DNA site
